Our source for the Human insulin receptor subtype B activity (EC50) values is patent EP4782465A1.

In the assay the target is Human insulin receptor subtype B (human), P06213. In words: cell-based or functional assay.

B1: Fusion protein 1 (insulin analog 1 + L2 + IgG2 Fc1) (Fc fusion)
chain: FVNQHLCGEHLVEALYLVCGERGFHYGGGGGGSGGGGGIVEQCCESICSLEQLENYCGGGGGQGGGGQGGGGQGGGGGECPPCPAPPVAGPSVFLFPPKPKDTLMISRTPEVTCVVVDVSHEDPEVQFNWYVDGVEVHNAKTKPREEQFNSTFRVVSVLTVVHQDWLNGKEYKCKVSNKGLPAPIEKTISKTKGQPREPQVYTLPPSREEMTKNQVSLTCLVKGFYPSDIAVEWESNGQPENNYKTTPPMLDSDGSFFLYSKLTVDKSRWQQGNVFSCSVMHEALHNHYTQKSLSLSPG
B1 showed a Human insulin receptor subtype B activity (EC50) of 0.422 µM.
